# Source: patent publication US20220177587A1, “METHODS AND USES OF VARIANT CD80 FUSION PROTEINS AND RELATED CONSTRUCTS” (Alpine Immune Sciences, Inc., priority 2018, published 2022)
# Substitutions are numbered along the chain they refer to. In names and notes the source's numbering stands.
# B1: CD80 V4M/L70Q/A91G/I118V/T120S/T130A/K169E ECD-Fc (Fc fusion)
# chain: VIHMTKEVKEVATLSCGHNVSVEELAQTRIYWQKEKKMVLTMMSGDMNIWPEYKNRTIFDITNNLSIVIQALRPSDEGTYECVVLKYEKDGFKREHLAEVTLSVKADFPTPSISDFEVPSSNIRRIICSASGGFPEPHLSWLENGEELNAINTTVSQDPETELYAVSSELDFNMTTNHSFMCLIKYGHLRVNQTFNWNTTKQEHFPDN
# B2: CD80 A91G/S103P ECD-Fc (Fc fusion)
# chain: B1 chain with M4V, Q70L, S103P, V118I, S120T, A130T, E169K
# B3: variant CD80 IgV-Fc E35D/M47L (Fc fusion)
# chain: VIHVTKEVKEVATLSCGHNVSVEELAQTRIYWQKDKKMVLTMMSGDLNIWPEYKNRTIFDITNNLSIVILALRPSDEGTYECVVLKYEKDAFKREHLAEVTLSVKAD
# B4: variant CD80 IgV-Fc E35D/M47V/A71G/L85M/L97Q (Fc fusion)
# chain: B3 chain with L47V, A71G, L85M, L97Q
# B5: variant CD80 IgV-Fc Q33L/E35D/M47L/V68M/L85Q/E88D (Fc fusion)
# chain: B3 chain with Q33L, V68M, L85Q, E88D
# B6: variant CD80 IgV-Fc E35D/M47I/E77A/L85Q/R94W (Fc fusion)
# chain: B3 chain with L47I, E77A, L85Q, R94W
# B7: variant CD80 IgV-Fc Q33L/E35D/N48K/L85Q/L97Q (Fc fusion)
# chain: B3 chain with Q33L, L47M, N48K, L85Q, L97Q
# B8: variant CD80 IgV-Fc E35D/D46V/V68M (Fc fusion)
# chain: B3 chain with D46V, L47M, V68M
# B9: variant CD80 IgV-Fc V22A/R29H/E35D/D46E/M47I (Fc fusion)
# chain: B3 chain with V22A, R29H, D46E, L47I
# B10: variant CD80 IgV-Fc H18Y/E35D/V68M/L97Q (Fc fusion)
# chain: B3 chain with H18Y, L47M, V68M, L97Q
# B11: variant CD80 IgV-Fc Q33L/E35D/M43V/M47I/A71G (Fc fusion)
# chain: B3 chain with Q33L, M43V, L47I, A71G
# B12: variant CD80 IgV-Fc Q33L/E35D/M43I/L85Q/R94W (Fc fusion)
# chain: B3 chain with Q33L, M43I, L47M, L85Q, R94W
# B13: variant CD80 IgV-Fc E35D/D46V/L85Q (Fc fusion)
# chain: B3 chain with D46V, L47M, L85Q
# B14: variant CD80 IgV-Fc H18L/V22A/E35D/M47L/N48T/L85Q (Fc fusion)
# chain: B3 chain with H18L, V22A, N48T, L85Q
# B15: variant CD80 IgV-Fc E35D/M47V/N48K (Fc fusion)
# chain: B3 chain with L47V, N48K
# B16: variant CD80 IgV-Fc Q33L/E35D/M47L/A71G/F92S (Fc fusion)
# chain: B3 chain with Q33L, A71G, F92S
# B17: variant CD80 IgV-Fc E35D/M47V/N48K/V68M (Fc fusion)
# chain: B3 chain with L47V, N48K, V68M
# B18: variant CD80 IgV-Fc E35D/D46E/M47V/L97Q (Fc fusion)
# chain: B3 chain with D46E, L47V, L97Q
# B19: variant CD80 IgV-Fc H18Y/V20A/Q33L/E35D/M47V/Y53F (Fc fusion)
# chain: B3 chain with H18Y, V20A, Q33L, L47V, Y53F
# B20: variant CD80 IgV-Fc H18Y/Y31H/E35D/M47V/A71G/L85Q (Fc fusion)
# chain: B3 chain with H18Y, Y31H, L47V, A71G, L85Q
# B21: variant CD80 IgV-Fc Q27H/Q33L/E35D/M47V/N55D/L85Q/K89N (Fc fusion)
# chain: B3 chain with Q27H, Q33L, L47V, N55D, L85Q, K89N
# B22: variant CD80 IgV-Fc E35D/M47V/V68M/K89N (Fc fusion)
# chain: B3 chain with L47V, V68M, K89N
# B23: variant CD80 IgV-Fc E35D/D46V/M47L (Fc fusion)
# chain: B3 chain with D46V
# B24: variant CD80 IgV-Fc E35D/N48K/V68M (Fc fusion)
# chain: B3 chain with L47M, N48K, V68M
# Molecular target: human PD-L1 (human) (UniProt Q9NZQ7)
# Assay: flow cytometry, Expi293F cells transfected with PD-L1
# Sequence of human PD-L1 (human) (Q9NZQ7 19-290): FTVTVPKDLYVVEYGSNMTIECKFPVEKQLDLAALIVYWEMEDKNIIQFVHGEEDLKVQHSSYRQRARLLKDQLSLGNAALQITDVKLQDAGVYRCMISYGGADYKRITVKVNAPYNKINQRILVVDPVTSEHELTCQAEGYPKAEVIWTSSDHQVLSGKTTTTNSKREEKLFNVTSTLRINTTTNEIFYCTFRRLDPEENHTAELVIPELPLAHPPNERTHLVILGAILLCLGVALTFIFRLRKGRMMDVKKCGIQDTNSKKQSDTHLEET
MFI [MFI],parental ratio,Binder
6,0.09,B1
9,0.13,B2

# Molecular target: human CTLA-4 (human) (UniProt P16410)
# Assay: flow cytometry, Expi293F cells transfected with CTLA-4
# Sequence of human CTLA-4 (human) (P16410 36-223): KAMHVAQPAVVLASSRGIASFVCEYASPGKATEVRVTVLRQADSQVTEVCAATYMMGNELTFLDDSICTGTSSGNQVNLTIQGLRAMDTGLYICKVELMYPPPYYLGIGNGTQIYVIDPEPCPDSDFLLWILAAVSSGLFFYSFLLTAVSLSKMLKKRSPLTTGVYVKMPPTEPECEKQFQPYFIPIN
MFI [MFI],parental ratio,Binder
263,1.26,B1

# Molecular target: human PD-L1 (human) (UniProt Q9NZQ7)
# Assay: flow cytometry, CHO cells expressing huPD-L1
row,MFI at 33.3 nM [MFI],Binder
1,7530,B3
2,61700,B4
3,126000,B5
4,64500,B6
5,45200,B7
6,26100,B8
7,25400,B9
8,122000,B10
9,78000,B11
10,29000,B12
11,4040,B13
12,98100,B14
13,4850,B15
14,28000,B16
15,23500,B17
16,19500,B18
17,121000,B19
18,76400,B20
19,14800,B21
20,21800,B22
21,7990,B23

# Molecular target: human CTLA-4 (human) (UniProt P16410)
# Assay: flow cytometry, CHO cells expressing huCTLA-4
row,MFI at 33.3 nM [MFI],Binder
1,48000,B3
2,31200,B8
3,48000,B13
4,47400,B15
5,32900,B17
6,33600,B24
7,29500,B22
8,45000,B23

# Molecular target: human CTLA-4 (human) (UniProt P16410)
# Assay: flow cytometry, CHO cells expressing huCTLA4; MFI ratio to WT CD80 ECD-Fc (R&D)
row,Fold change to WT CD80 [fold],Binder
1,1.34,B4
2,0.02,B5
3,1.38,B6
4,0.01,B7
5,0.43,B9
6,0.97,B10
7,0.08,B11
8,0.01,B12
9,2.09,B14
10,0.01,B16
11,1.71,B18
12,0.02,B19
13,0.02,B20
14,0.31,B21

# Molecular target: CD28 (human) (UniProt P10747)
# Assay: flow cytometry, Jurkat/IL2 reporter cells (endogenous CD28)
row,MFI at 33.3 nM [MFI],Binder
1,339,B4
2,264,B5
3,272,B6
4,279,B7
5,323,B9
6,299,B10
7,284,B11
8,272,B12
9,434,B14
10,366,B16
11,371,B18
12,260,B19
13,268,B20
14,269,B21

# Molecular target: human PD-L1 (human) (UniProt Q9NZQ7)
# Assay: flow cytometry, CHO cells expressing huPD-L1; MFI ratio to WT CD80 ECD-Fc (R&D)
row,Fold change to WT [fold],Binder
1,7.77,B4
2,15.8,B5
3,8.12,B6
4,5.69,B7
5,3.2,B9
6,15.3,B10
7,9.82,B11
8,3.65,B12
9,12.3,B14
10,3.53,B16
11,2.45,B18
12,15.2,B19
13,9.61,B20
14,1.86,B21

# Molecular target: CD28 (human) (UniProt P10747)
# Assay: flow cytometry, Jurkat/IL2 reporter cells (CD28)
row,MFI at 33.3 nM [MFI],Binder
1,411,B3
2,196,B13
3,642,B24

# Molecular target: human PD-L1 (human) (UniProt Q9NZQ7)
# Assay: flow cytometry; binding to PD-L1 cells against binding of the same variant to CD28 cells
row,Ratio of PDL1:CD28,Binder
1,182,B4
2,476,B5
3,238,B6
4,162,B7
5,79,B9
6,407,B10
7,275,B11
8,107,B12
9,226,B14
10,77,B16
11,52,B18
12,463,B19
13,285,B20
14,55,B21

# Molecular target: human CTLA-4 (human) (UniProt P16410)
# Assay: flow cytometry, CHO cells expressing huCTLA4
row,MFI at 33.3 nM [MFI],Binder
1,239000,B4
2,3530,B5
3,247000,B6
4,1180,B7
5,77400,B9
6,173000,B10
7,14000,B11
8,1080,B12
9,374000,B14
10,2110,B16
11,305000,B18
12,2880,B19
13,3840,B20
14,56100,B21

# Molecular target: CD28 (human) (UniProt P10747)
# Assay: flow cytometry, Jurkat/IL2 reporter cells (endogenous CD28); MFI ratio to WT CD80 ECD-Fc (R&D)
row,Fold change to WT [fold],Binder
1,0.04,B4
2,0.03,B5
3,0.04,B6
4,0.04,B7
5,0.04,B9
6,0.04,B10
7,0.04,B11
8,0.04,B12
9,0.06,B14
10,0.05,B16
11,0.05,B18
12,0.03,B19
13,0.04,B20
14,0.04,B21

# Molecular target: CD28 (human) (UniProt P10747)
# Assay: flow cytometry, Expi293F cells transfected with CD28
MFI [MFI],parental ratio,Binder
89,0.94,B1
39,0.41,B2
